Reference: patent publication US20080213296A1
Where “and” joins values, the source holds several entries; their conditions need not be identical. Equal values may be shown once.

Columns and labels:
[1] = target: HIV 89.6 gp120 envelope protein (soluble) (HIV 89.6 (Clade B) primary isolate); assay: SPR capture assay, gp120 over immobilized A32
[2] = target: scrambled sequence DP178 peptide; assay: SPR SA-chip assay, A32 over biotinylated scrDP178
[3] = target: HIV 89.6 gp120 envelope protein (soluble) (HIV 89.6 (Clade B) primary isolate); assay: SPR capture assay, mAb pre-incubated with 89.6 gp120, captured on A32; competitor DP178 50 µg/ml
[4] = target: HIV 89.6 gp140 envelope protein (cleaved gp140 preparation, oligomers) (HIV 89.6 (Clade B) primary isolate); assay: SPR, sCD4-ligated gp140
[5] = target: HIV 89.6 gp140 envelope protein (cleaved gp140 preparation, oligomers) (HIV 89.6 (Clade B) primary isolate); assay: SPR, D1 peptide over directly immobilized 89.6 gp140, no CD4
[6] = target: HIV 89.6 gp140 envelope protein (cleaved gp140 preparation, oligomers) (HIV 89.6 (Clade B) primary isolate); assay: SPR, D1 peptide over 89.6 gp140 captured on immobilized CD4 (CD4-gp140 complex)
[7] = target: soluble CD4 (UniProt P01730); assay: SPR
[8] = target: soluble CD4 (UniProt P01730); assay: SPR, gp120 over immobilized CD4
[9] = target: recombinant HIV ADA gp41 protein (HIV ADA); assay: SPR, 89.6 gp120 (100 µg/ml) over immobilized ADA gp41
[10] = target: recombinant HIV ADA gp41 protein (HIV ADA); assay: SPR, 89.6 gp120 pre-incubated with 0.3 mg/ml CD4, over immobilized ADA gp41
[11] = target: HIV 89.6 gp120 envelope protein (soluble) (HIV 89.6 (Clade B) primary isolate); assay: SPR SA-chip assay, 89.6 gp120 alone over biotinylated scrDP178

Row | Substance | % blocking of DP178 binding [3] | t1/2 of binding [7] | Kd [8] | koff [8] | further results
1 | mab A32 (human anti-gp120, conformational determinant) (antibody) |  |  |  |  | RU bound [1]: 2000 RU; RU (background signal) [2]: 10 RU and 20 RU
2 | mab 17b (human, CCR5/coreceptor binding site of gp120) (antibody) | 80% |  |  |  | 
3 | mAb 48d (human, coreceptor binding site of gp120) (antibody) | 80% |  |  |  | 
4 | mab 19b (human anti-gp120 V3 loop) (antibody) | 68% |  |  |  | 
5 | CCR5-D1 peptide (CCR5 N-terminal extracellular domain peptide) |  |  |  |  | Kd [4]: 280 µM; Kd [5]: 1 µM; koff [5]: 0.01 s⁻¹; Kd [6]: 0.28 µM; koff [6]: 0.00256 s⁻¹; kon [6]: 9000 M⁻¹ s⁻¹
6 | HIV 89.6 gp120 envelope protein (soluble) |  | 105 min | 0.023 µM | 0.00011 s⁻¹ | RU bound [9]: 300 RU; RU bound [10]: 850 RU
7 | scrambled sequence DP178 peptide |  |  |  |  | RU (constitutive binding) [11]: 50 RU
8 | HIV DH12 gp120 (soluble, monomeric) |  | 25 min | 0.096 µM | 0.00047 s⁻¹ | 
9 | HIV JRFL gp120 (soluble, monomeric) |  | 14 min | 0.146 µM | 0.00088 s⁻¹ | 
